For the assay, the system named is acute lung injury induced by LPS-zymosan. The assay can be described thus: Lethal model of acute lung injury (ALI) / ARDS in rats (LPS-zymosan). Type of assay: in vivo, Sprague Dawley rats. How it is done:
Male Sprague Dawley rats with body weight between 250 and 280 grams were used. Lung injury was induced under general anesthesia (ketamine/xylazine) by intratracheal instillation of a combination of lipopolysaccharide (LPS)-zymosan. Immediately afterwards, the animals were randomly assigned to three experimental groups of 12 animals each.
The animals were allowed to evolve without any treatment until the onset of the first symptoms.
Therefore, treatments were begun approximately 8 hours after the toxins were instilled. The experiment was aimed at evaluating the effect of treatment with both EGF formulations solely on the acute phase of ARDS. The treatments were performed by orofacial mask adapted from a volatile anesthesia machine. Treatments were performed twice daily. The animals were also treated once a day with hydrocortisone acetate (10 mg/kg) as coadjuvant treatment.
After 72 hours of treatment onset, the study was stopped. Surviving animals were anesthetized and subjected to deep bronchoalveolar lavage in 5 ml of sterile saline for cytological and biochemical study, as well as arterial blood sampling for determination of blood gas parameters. Then the lungs were insufflated with 10 ml of 10% neutral formalin and processed for histology.

Where [1] appears, read: arterial blood, survivors at 72 hours.
[2] abbreviates: bronchoalveolar lavage, survivors at 72 hours.

B1: EGF in physiological saline: spray of EGF (Epidermal Growth Factor) in physiological saline at 25 μg/ml/kg (protein, UniProt P01133 23-1207, looked up)
Pro-epidermal growth factor: PQHWSCPEGTLAGNGNSTCVGPAPFLIFSHGNSIFRIDTEGTNYEQLVVDAGVSVIMDFHYNEKRIYWVDLERQLLQRVFLNGSRQERVCNIEKNVSGMAINWINEEVIWSNQQEGIITVTDMKGNNSHILLSALKYPANVAVDPVERFIFWSSEVAGSLYRADLDGVGVKALLETSEKITAVSLDVLDKRLFWIQYNREGSNSLICSCDYDGGSVHISKHPTQHNLFAMSLFGDRIFYSTWKMKTIWIANKHTGKDMVRINLHSSFVPLGELKVVHPLAQPKAEDDTWEPEQKLCKLRKGNCSSTVCGQDLQSHLCMCAEGYALSRDRKYCEDVNECAFWNHGCTLGCKNTPGSYYCTCPVGFVLLPDGKRCHQLVSCPRNVSECSHDCVLTSEGPLCFCPEGSVLERDGKTCSGCSSPDNGGCSQLCVPLSPVSWECDCFPGYDLQLDEKSCAASGPQPFLLFANSQDIRHMHFDGTDYGTLLSQQMGMVYALDHDPVENKIYFAHTALKWIERANMDGSQRERLIEEGVDVPEGLAVDWIGRRFYWTDRGKSLIGRSDLNGKRSKIITKENISQPRGIAVHPMAKRLFWTDTGINPRIESSSLQGLGRLVIASSDLIWPSGITIDFLTDKLYWCDAKQSVIEMANLDGSKRRRLTQNDVGHPFAVAVFEDYVWFSDWAMPSVMRVNKRTGKDRVRLQGSMLKPSSLVVVHPLAKPGADPCLYQNGGCEHICKKRLGTAWCSCREGFMKASDGKTCLALDGHQLLAGGEVDLKNQVTPLDILSKTRVSEDNITESQHMLVAEIMVSDQDDCAPVGCSMYARCISEGEDATCQCLKGFAGDGKLCSDIDECEMGVPVCPPASSKCINTEGGYVCRCSEGYQGDGIHCLDIDECQLGEHSCGENASCTNTEGGYTCMCAGRLSEPGLICPDSTPPPHLREDDHHYSVRNSDSECPLSHDGYCLHDGVCMYIEALDKYACNCVVGYIGERCQYRDLKWWELRHAGHGQQQKVIVVAVCVVVLVMLLLLSLWGAHYYRTQKLLSKNPKNPYEESSRDVRSRRPADTEDGMSSCPQPWFVVIKEHQDLKNGGQPVAGEDGQAADGSMQPTSWRQEPQLCGMGTEQGCWIPVSSDKGSCPQVMERSFHMPSYGTQTLEGGVEKPHSLLSANPLWQQRALDPPHQMELTQ
modifications: Pro-epidermal growth factor
notes: spray of EGF (Epidermal Growth Factor) in physiological saline at 25 μg/ml/kg
As to B1, under “12 animals per group, 72 hours”, the Death total stood at 5 and the “Death total (percent)” value is given as “(41.6%)”. The “Mortality (deaths) 48 hours” value (12 animals per group, EGF 25 μg/ml, orofacial mask twice daily) came out at 5. Besides, under setting [1], the “Arterial pH” value was 7.12 ± 0.1 and the Arterial saturation was 76 ± 8.3. Further, under setting [2], the “Inflammatory cells per ml” value was 2.2 × 10^3, the “Red blood cells per ml” value is 5.0 × 10^2 and the “Total phospholipids per g of lung tissue” value turned out to be 0.000241 g.

These data come from patent US11510965B2, “Vesicles comprising epidermal growth factor and compositions thereof” (Centro de Ingeniería Genética y Biotecnología, priority 2012, dated 2022).
